The supplement of paper PMC9170038

Tested on: K4 kissing-loop RNA reporter
Test: apparent KD of K4 kissing-loop reporter; higher = weaker reporter binding
Settings: Eterna round: R107
Description: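 RNA-MaP round R107: designed RNA switches with theophylline, tryptophan, arginine or FMN aptamers are transcribed on-chip within common flanks. They are titrated with a labelled K4 kissing-loop RNA reporter in RNA-MaP buffer (100 mM Tris pH 7.5, 80 mM KCl, 4 mM MgCl2), without ligand or with the indicated ligand. Median apparent KD per design.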

[1] = input ligand: theophylline 20 uM
[2] = input ligand: tryptophan 2.4 mM
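Also: bound reporter read as fluorescence of individual clusters on recovered sequencing chips by microscopy, with normalized cluster intensities fitted with a binding model.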

Row | Sequence | apparent KD of K4 kissing-loop reporter (input ligand: FMN 200 uM) | apparent KD of K4 kissing-loop reporter (input ligand: arginine 13.2 mM) | apparent KD of K4 kissing-loop reporter (input ligand: none) | apparent KD of K4 kissing-loop reporter [1] | apparent KD of K4 kissing-loop reporter [2]
1 | AGACCACAAAGUGGUCAGUGUUCGCUGCGGCGAGGACCGGUACGGCCGCCACUCGCGAGUGAUGUUCGCGAGCGCAGCGAACACA [Omei KL Tryp A Exc A v3] | 89.4 nM | 88.8 nM | 92.7 nM | 65 nM | 88.5 nM
2 | GGCGGCUGCGCGCAAGCGCAGCCGGCCGAUACCAGCGCGACGGCGCGCCCUUGGCAGCGGCGCCGAGUGAUGUUCGGCCUGCCGU [#2 Same State - Theophylline A Attempt #22 (HarryS)] | 113 nM | 98.1 nM | 129 nM | 149 nM | 141 nM
3 | GUGCGUAAGUGAUGUUUACGUCAGCUCCGCAAGGAUAUCCUGAUUAGGAGAAGGUGCGGGAACUAAAGACGCUCGUUCUAGCAGG [theeternabot_exclusion_KL_FMN_A_33] | 146 nM | 182 nM | 205 nM | 168 nM | 162 nM
4 | GUGCGCGCGGCGGCCGCCACUCGCAUGAGAGUGAUGUUCUCGGGACUGACGGAAGUCAGUCAUGGGAGGACCGGGCCGGGCUGCG [#2 Same State - Tryptophan B Attempt #13 (HarryS)] | 360 nM | 958 nM | 208 nM | 1140 nM | 521 nM
5 | GGAGAGCGAAAAGGAUAUGCGUCCGUCAAAAUUAUGUAGCGCGGAAAAUGGUAGUGAUGUUGCAAAGCAGAAGGUUUCAGAUGUA [theeternabot_sameState_KL_FMN_B_43] | 260 nM | 259 nM | 450 nM | 519 nM | 216 nM
6 | GCGAAAAGCAAAACGAGUGAUGUUCGAAAACGAGGACCGGUACGGCCGCCACUCGAAAACGUCUGCGUGGGAAACUAUGUAGAUG [SS Tryptophan A - 1] | 511 nM | 569 nM | 698 nM | 590 nM | 302 nM
7 | UGAUAGGACAGAAGGAGCGGUAGUGAUGUUGCCAAAAGUAUAAGGUGUCAAAAGACACCCUGCCAGGUAGGUCGCUGUCCUAUCU | 134 nM | 228 nM | 187 nM | 190 nM | 137 nM
8 | AGAAUAAUAAAUUUGGAGUGAUGUUCCGGACGAGGACCGGUACGGCCGCCACUCGAAAGCAGUCUGCGAAAGCAGACUGCAAGGA [Tesla SS Tryp A 1] | 817 nM | 449 nM | 580 nM | 349 nM | 645 nM
9 | GGGUCUGCGCGAAGGAGCGCCCUGACAGGUUGCUGCCGUGGGCAGUGAUGUUGCUCAGUCCGGCAGGUAGGUCGCGUGCAGACCC | 135 nM | 161 nM | 176 nM | 169 nM | 160 nM
10 | GGUGUUGUUUGUGCUGUUUUCUUCGUUUCUCGAGGACCGGUACGGCCGCCACUCGAGUGAUGUUUGGGUAGCGAUCUUUGUUAGU [Bdazzled - #4- Exc. Tryptophan A] | 430 nM | 256 nM | 345 nM | 339 nM | 385 nM
11 | AGUGAACGAGCGGCCGCCACUAAAUGAGUGAUGUUCGUGAGUAGUGCUGUUCUCAUGAUUGUUUUUAGGACCGGGUUCGAUGUUG [edcclmullin] | 937 nM | 739 nM | 762 nM | 576 nM | 662 nM
12 | CGUCGGUAGUGAUGUUGCCACGACGCUUUUAAGGAUAUAAGCUAAGUUAGAAGGUAAGAGAGUCAGCCCGGUGGCCUUAGAGUAG [theeternabot_exclusion_KL_FMN_A_17] | 257 nM | 186 nM | 195 nM | 162 nM | 151 nM
13 | ACGCGCGCGAGUGAUGUUCGGAGCGGCUGGCAGGAUAUGUAGCAAUGCAGAAGGGUCGUGGCGCGUCCAGGGUAACCUGGACGCG [#2 Exclusion - FMN A Attempt #26 (HarryS)] | 280 nM | 229 nM | 1040 nM | 455 nM | 719 nM
14 | AGGAUCCGUCGACAAAAGUCGACAUAAUCCGAGGAUAUGACGAAAGUCAGAAGGUGGACAUAAGUCCAGUGAUGUUGGAGGAUCC [FmnA 17 #SwitchBubble #K4Late] | 847 nM | 218 nM | 441 nM | 420 nM | 193 nM
15 | GGAUAGGACAGAGGAUAUGGUAGCUAGGCAAGACAAAAGUCUUGUCUAGCAAUGAGGAGUGAUGUUCCAGAAGGCUGUCCUAUCG [FmnBX 4 - #SwitchBubble #StaticStem] | 753 nM | 350 nM | 442 nM | 387 nM | 270 nM
16 | AAGCGUGUGGCGGCCGCCACUAGUCUCCAGUGAUGUUGGAGAGAUCACGUAAGUGAUCUCCGACAUAGGACCGGGCCAUAUGGAA [Same State - Tryptophan B (Freestyle 23)] | 69.1 nM | 125 nM | 186 nM | 443 nM | 214 nM
17 | UUUGGUUGUGGUGUUGAUUAGGGAGCGGAAGGAGCGCCGAGGAGGGCAGGUAGGUCGCCGGAAUGUAGUGAUGUUGCAUAGAGGU [ExArgA.Ad] | 325 nM | 277 nM | 198 nM | 603 nM | 341 nM
18 | AGAGUUAUGAGAGGAUAUGCGGCUAGUACUCAAAGAGUACUAGCAGCGGAGUGAUGUUCUGUGAAAGCAGAAGGUUCAUAACUCA [#07 K4 FMN B Same State] | 159 nM | 1350 nM | 1100 nM | 907 nM | 1350 nM
19 | UUUUUAAUCGCAGAUACCAGUCCAGAAUGAAUACUAUAGUGAUGUUAUAAUAAAGGGAAGGACCCUUGGCAGCUGUACUAUAUUU [AstrosSsTheB#6] | 412 nM | 308 nM | 398 nM | 300 nM | 299 nM
20 | AUGAGGUGACUAAAUAAUAAGGGAAUUGAUACCAGACAGAAUUCUGUCCCUUGGCAGCAGUGAUGUUGUUGCAAGUCAGCUCAAA [AK1.1 Exc Theophylline A] | 265 nM | 186 nM | 206 nM | 198 nM | 212 nM
21 | UAGGAGUGAUGUUCCAUGUCUUGAGCCGAAGGAGCGCCUUUCUAGGCAGGUAGGUCGCGGCAGAAGGUACCAGUGAUGUUGGAAA [Same State Arginine A GF8] | 249 nM | 385 nM | 372 nM | 283 nM | 279 nM
